Substrate in this data set: C[C@H](N)C(=O)O
Nature of the data set: purified protein. The settings on record: 2 mM ATP, 2 mM PPi, 10 mM MgCl2, 30 mM KCl, 2 mM NaF, pH 7.2, 37 °C, amino acid activation.

B1: E. coli AlaRS (Escherichia coli K-12; C666A/R561C) (protein)
chain: SKSTAEIRQAFLDFFHSKGHQVVASSSLVPHNDPTLLFTNAGMNQFKDVFLGLDKRNYSRATTSQRCVRAGGKHNDLENVGYTARHHTFFEMLGNFSFGDYFKHDAIQFAWELLTSEKWFALPKERLWVTVYESDDEAYEIWEKEVGIPRERIIRIGDNKGAPYASDNFWQMGDTGPCGPCTEIFYDHGDHIWGGPPGSPEEDGDRYIEIWNIVFMQFNRQADGTMEPLPKPSVDTGMGLERIAAVLQHVNSNYDIDLFRTLIQAVAKVTGATDLSNKSLRVIADHIRSCAFLIADGVMPSNENRGYVLRRIIRRAVRHGNMLGAKETFFYKLVGPLIDVMGSAGEDLKRQQAQVEQVLKTEEEQFARTLERGLALLDEELAKLSGDTLDGETAFRLYDTYGFPVDLTADVCRERNIKVDEAGFEAAMEEQRRRAREASGFGADYNAMIRVDSASEFKGYDHLELNGKVTALFVDGKAVDAINAGQEAVVVLDQTPFYAESGGQVGDKGELKGANFSFAVEDTQKYGQAIGHIGKLAAGSLKVGDAVQADVDEARRARICLNHSATHLMHAALRQVLGTHVSQKGSLVNDKVLRFDFSHNEAMKPEEIRAVEDLVNTQIRRNLPIETNIMDLEAAKAKGAMALFGEKYDERVRVLSMGDFSTELAGGTHASRTGDIGLFRIISESGTAAGVRRIEAVTGEGAIATVHADSDRLSEVAHLLKGDSNNLADKVRSVLERTRQLEKELQQLKEQAAAQESANLSSKAIDVNGVKLLVSELSGVEPKMLRTMVDDLKNQLGSTIIVLATVVEGKVSLIAGVSKDVTDRVKAGELIGMVAQQVGGKGGGRPDMAQAGGTDAAALPAALASVKGWVSAKLQ
One may read the Km as the concentration of substrate that gives half-maximal velocity. As a reminder, the kcat is the maximal rate divided by the concentration of active sites. Usually kcat/Km stands for the second-order rate constant that governs catalysis at low substrate concentration. Regarding B1, the Michaelis-Menten constant (Km) is listed as 190 ± 30 µM, the kcat was determined as 13.7 s⁻¹ and the kcat/Km turned out to be 71500 M⁻¹ s⁻¹.

B2: E. coli AlaRS (Escherichia coli K-12; R561S) (protein)
chain: SKSTAEIRQAFLDFFHSKGHQVVASSSLVPHNDPTLLFTNAGMNQFKDVFLGLDKRNYSRATTSQRCVRAGGKHNDLENVGYTARHHTFFEMLGNFSFGDYFKHDAIQFAWELLTSEKWFALPKERLWVTVYESDDEAYEIWEKEVGIPRERIIRIGDNKGAPYASDNFWQMGDTGPCGPCTEIFYDHGDHIWGGPPGSPEEDGDRYIEIWNIVFMQFNRQADGTMEPLPKPSVDTGMGLERIAAVLQHVNSNYDIDLFRTLIQAVAKVTGATDLSNKSLRVIADHIRSCAFLIADGVMPSNENRGYVLRRIIRRAVRHGNMLGAKETFFYKLVGPLIDVMGSAGEDLKRQQAQVEQVLKTEEEQFARTLERGLALLDEELAKLSGDTLDGETAFRLYDTYGFPVDLTADVCRERNIKVDEAGFEAAMEEQRRRAREASGFGADYNAMIRVDSASEFKGYDHLELNGKVTALFVDGKAVDAINAGQEAVVVLDQTPFYAESGGQVGDKGELKGANFSFAVEDTQKYGQAIGHIGKLAAGSLKVGDAVQADVDEARRARISLNHSATHLMHAALRQVLGTHVSQKGSLVNDKVLRFDFSHNEAMKPEEIRAVEDLVNTQIRRNLPIETNIMDLEAAKAKGAMALFGEKYDERVRVLSMGDFSTELCGGTHASRTGDIGLFRIISESGTAAGVRRIEAVTGEGAIATVHADSDRLSEVAHLLKGDSNNLADKVRSVLERTRQLEKELQQLKEQAAAQESANLSSKAIDVNGVKLLVSELSGVEPKMLRTMVDDLKNQLGSTIIVLATVVEGKVSLIAGVSKDVTDRVKAGELIGMVAQQVGGKGGGRPDMAQAGGTDAAALPAALASVKGWVSAKLQ
In the case of B2, the Km was 180 ± 15 µM, the kcat stood at 20.3 s⁻¹ and the kcat/Km was found to be 112000 M⁻¹ s⁻¹.

B3: E. coli AlaRS (Escherichia coli K-12) (protein)
chain: SKSTAEIRQAFLDFFHSKGHQVVASSSLVPHNDPTLLFTNAGMNQFKDVFLGLDKRNYSRATTSQRCVRAGGKHNDLENVGYTARHHTFFEMLGNFSFGDYFKHDAIQFAWELLTSEKWFALPKERLWVTVYESDDEAYEIWEKEVGIPRERIIRIGDNKGAPYASDNFWQMGDTGPCGPCTEIFYDHGDHIWGGPPGSPEEDGDRYIEIWNIVFMQFNRQADGTMEPLPKPSVDTGMGLERIAAVLQHVNSNYDIDLFRTLIQAVAKVTGATDLSNKSLRVIADHIRSCAFLIADGVMPSNENRGYVLRRIIRRAVRHGNMLGAKETFFYKLVGPLIDVMGSAGEDLKRQQAQVEQVLKTEEEQFARTLERGLALLDEELAKLSGDTLDGETAFRLYDTYGFPVDLTADVCRERNIKVDEAGFEAAMEEQRRRAREASGFGADYNAMIRVDSASEFKGYDHLELNGKVTALFVDGKAVDAINAGQEAVVVLDQTPFYAESGGQVGDKGELKGANFSFAVEDTQKYGQAIGHIGKLAAGSLKVGDAVQADVDEARRARIRLNHSATHLMHAALRQVLGTHVSQKGSLVNDKVLRFDFSHNEAMKPEEIRAVEDLVNTQIRRNLPIETNIMDLEAAKAKGAMALFGEKYDERVRVLSMGDFSTELCGGTHASRTGDIGLFRIISESGTAAGVRRIEAVTGEGAIATVHADSDRLSEVAHLLKGDSNNLADKVRSVLERTRQLEKELQQLKEQAAAQESANLSSKAIDVNGVKLLVSELSGVEPKMLRTMVDDLKNQLGSTIIVLATVVEGKVSLIAGVSKDVTDRVKAGELIGMVAQQVGGKGGGRPDMAQAGGTDAAALPAALASVKGWVSAKLQ
On to B3, for which the Km was determined as 320 ± 150 µM, the kcat was found to be 20.8 s⁻¹ and the kcat/Km worked out at 65200 M⁻¹ s⁻¹.

B4: E. coli AlaRS (Escherichia coli K-12; C666A) (protein)
chain: SKSTAEIRQAFLDFFHSKGHQVVASSSLVPHNDPTLLFTNAGMNQFKDVFLGLDKRNYSRATTSQRCVRAGGKHNDLENVGYTARHHTFFEMLGNFSFGDYFKHDAIQFAWELLTSEKWFALPKERLWVTVYESDDEAYEIWEKEVGIPRERIIRIGDNKGAPYASDNFWQMGDTGPCGPCTEIFYDHGDHIWGGPPGSPEEDGDRYIEIWNIVFMQFNRQADGTMEPLPKPSVDTGMGLERIAAVLQHVNSNYDIDLFRTLIQAVAKVTGATDLSNKSLRVIADHIRSCAFLIADGVMPSNENRGYVLRRIIRRAVRHGNMLGAKETFFYKLVGPLIDVMGSAGEDLKRQQAQVEQVLKTEEEQFARTLERGLALLDEELAKLSGDTLDGETAFRLYDTYGFPVDLTADVCRERNIKVDEAGFEAAMEEQRRRAREASGFGADYNAMIRVDSASEFKGYDHLELNGKVTALFVDGKAVDAINAGQEAVVVLDQTPFYAESGGQVGDKGELKGANFSFAVEDTQKYGQAIGHIGKLAAGSLKVGDAVQADVDEARRARIRLNHSATHLMHAALRQVLGTHVSQKGSLVNDKVLRFDFSHNEAMKPEEIRAVEDLVNTQIRRNLPIETNIMDLEAAKAKGAMALFGEKYDERVRVLSMGDFSTELAGGTHASRTGDIGLFRIISESGTAAGVRRIEAVTGEGAIATVHADSDRLSEVAHLLKGDSNNLADKVRSVLERTRQLEKELQQLKEQAAAQESANLSSKAIDVNGVKLLVSELSGVEPKMLRTMVDDLKNQLGSTIIVLATVVEGKVSLIAGVSKDVTDRVKAGELIGMVAQQVGGKGGGRPDMAQAGGTDAAALPAALASVKGWVSAKLQ
B4: the Michaelis constant (Km) came to 263 ± 115 µM, the catalytic constant (kcat) came out at 16.8 s⁻¹ and the kcat/Km was determined as 63800 M⁻¹ s⁻¹.

B5: E. coli AlaRS (Escherichia coli K-12; C666A/R561S) (protein)
chain: SKSTAEIRQAFLDFFHSKGHQVVASSSLVPHNDPTLLFTNAGMNQFKDVFLGLDKRNYSRATTSQRCVRAGGKHNDLENVGYTARHHTFFEMLGNFSFGDYFKHDAIQFAWELLTSEKWFALPKERLWVTVYESDDEAYEIWEKEVGIPRERIIRIGDNKGAPYASDNFWQMGDTGPCGPCTEIFYDHGDHIWGGPPGSPEEDGDRYIEIWNIVFMQFNRQADGTMEPLPKPSVDTGMGLERIAAVLQHVNSNYDIDLFRTLIQAVAKVTGATDLSNKSLRVIADHIRSCAFLIADGVMPSNENRGYVLRRIIRRAVRHGNMLGAKETFFYKLVGPLIDVMGSAGEDLKRQQAQVEQVLKTEEEQFARTLERGLALLDEELAKLSGDTLDGETAFRLYDTYGFPVDLTADVCRERNIKVDEAGFEAAMEEQRRRAREASGFGADYNAMIRVDSASEFKGYDHLELNGKVTALFVDGKAVDAINAGQEAVVVLDQTPFYAESGGQVGDKGELKGANFSFAVEDTQKYGQAIGHIGKLAAGSLKVGDAVQADVDEARRARISLNHSATHLMHAALRQVLGTHVSQKGSLVNDKVLRFDFSHNEAMKPEEIRAVEDLVNTQIRRNLPIETNIMDLEAAKAKGAMALFGEKYDERVRVLSMGDFSTELAGGTHASRTGDIGLFRIISESGTAAGVRRIEAVTGEGAIATVHADSDRLSEVAHLLKGDSNNLADKVRSVLERTRQLEKELQQLKEQAAAQESANLSSKAIDVNGVKLLVSELSGVEPKMLRTMVDDLKNQLGSTIIVLATVVEGKVSLIAGVSKDVTDRVKAGELIGMVAQQVGGKGGGRPDMAQAGGTDAAALPAALASVKGWVSAKLQ
For B5, the Km was determined as 177 ± 37 µM, the kcat is 13.2 s⁻¹ and the kcat/Km came out at 74300 M⁻¹ s⁻¹.

B6: E. coli AlaRS (Escherichia coli K-12; D551Y) (protein)
chain: SKSTAEIRQAFLDFFHSKGHQVVASSSLVPHNDPTLLFTNAGMNQFKDVFLGLDKRNYSRATTSQRCVRAGGKHNDLENVGYTARHHTFFEMLGNFSFGDYFKHDAIQFAWELLTSEKWFALPKERLWVTVYESDDEAYEIWEKEVGIPRERIIRIGDNKGAPYASDNFWQMGDTGPCGPCTEIFYDHGDHIWGGPPGSPEEDGDRYIEIWNIVFMQFNRQADGTMEPLPKPSVDTGMGLERIAAVLQHVNSNYDIDLFRTLIQAVAKVTGATDLSNKSLRVIADHIRSCAFLIADGVMPSNENRGYVLRRIIRRAVRHGNMLGAKETFFYKLVGPLIDVMGSAGEDLKRQQAQVEQVLKTEEEQFARTLERGLALLDEELAKLSGDTLDGETAFRLYDTYGFPVDLTADVCRERNIKVDEAGFEAAMEEQRRRAREASGFGADYNAMIRVDSASEFKGYDHLELNGKVTALFVDGKAVDAINAGQEAVVVLDQTPFYAESGGQVGDKGELKGANFSFAVEDTQKYGQAIGHIGKLAAGSLKVGDAVQAYVDEARRARIRLNHSATHLMHAALRQVLGTHVSQKGSLVNDKVLRFDFSHNEAMKPEEIRAVEDLVNTQIRRNLPIETNIMDLEAAKAKGAMALFGEKYDERVRVLSMGDFSTELCGGTHASRTGDIGLFRIISESGTAAGVRRIEAVTGEGAIATVHADSDRLSEVAHLLKGDSNNLADKVRSVLERTRQLEKELQQLKEQAAAQESANLSSKAIDVNGVKLLVSELSGVEPKMLRTMVDDLKNQLGSTIIVLATVVEGKVSLIAGVSKDVTDRVKAGELIGMVAQQVGGKGGGRPDMAQAGGTDAAALPAALASVKGWVSAKLQ
Consider B6, for which the Km is 260 ± 76 µM, the kcat is 11.9 s⁻¹ and the specificity constant (kcat/Km) was 46000 M⁻¹ s⁻¹.

These data come from paper PMC7603204.
